Test results reported in patent US20080166352A1 (Amgen, published 2008).

T1: soluble recombinant human B7RP-1 (human, UniProt O75144 19-256, limits assumed)
T1 construct: also called hB7RP-1; soluble B7RP-1
T1 sequence (looked up): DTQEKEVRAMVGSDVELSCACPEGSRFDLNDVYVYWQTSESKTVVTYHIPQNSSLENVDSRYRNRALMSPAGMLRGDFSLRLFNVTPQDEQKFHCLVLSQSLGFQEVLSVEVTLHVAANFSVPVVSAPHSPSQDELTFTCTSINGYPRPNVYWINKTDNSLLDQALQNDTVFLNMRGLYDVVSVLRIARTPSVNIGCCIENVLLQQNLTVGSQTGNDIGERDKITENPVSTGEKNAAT

T2: human B7RP-1 Ig2 (IgC-like) domain fused to chicken avidin (human; chicken, UniProt O75144 120-246)
T2 construct: Order of the parts not certain ('N-terminal, in-frame fusions with chicken avidin'); also called Ig2 domain; membrane-proximal Ig2 domain; not shown: chicken avidin
T2 sequence: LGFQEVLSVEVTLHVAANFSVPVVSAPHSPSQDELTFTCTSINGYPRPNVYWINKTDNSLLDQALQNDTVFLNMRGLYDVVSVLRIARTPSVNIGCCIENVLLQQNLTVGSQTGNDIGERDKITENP

T3: human B7RP1-Fc fusion protein (human, UniProt O75144 19-256, limits assumed)
T3 construct: also called hB7RP-1-Fc; hB7RP1Fc; not shown: Fc part
T3 sequence (looked up): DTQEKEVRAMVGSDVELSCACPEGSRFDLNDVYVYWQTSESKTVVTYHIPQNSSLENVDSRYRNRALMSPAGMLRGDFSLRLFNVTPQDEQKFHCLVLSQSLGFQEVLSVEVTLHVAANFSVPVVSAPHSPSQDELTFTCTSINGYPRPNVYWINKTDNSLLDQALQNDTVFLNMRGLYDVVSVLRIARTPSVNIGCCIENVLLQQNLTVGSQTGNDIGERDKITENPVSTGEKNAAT

T4: full-length human B7RP-1 on cells (human, UniProt O75144 19-302)
T4 sequence (looked up): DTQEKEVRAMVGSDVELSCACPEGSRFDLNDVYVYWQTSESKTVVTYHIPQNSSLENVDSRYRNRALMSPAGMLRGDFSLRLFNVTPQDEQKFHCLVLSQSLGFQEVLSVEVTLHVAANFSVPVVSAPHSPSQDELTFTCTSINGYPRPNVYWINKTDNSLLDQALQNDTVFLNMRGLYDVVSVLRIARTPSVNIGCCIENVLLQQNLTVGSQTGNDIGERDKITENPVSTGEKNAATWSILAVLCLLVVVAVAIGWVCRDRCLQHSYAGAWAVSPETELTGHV


Experiments:
[1] = molecular target: T1, soluble recombinant human B7RP-1; experiment: Biacore mono column of Table 4 (same value as Table 3)
Protocol: (§1) A fixed concentration of mAb was then incubated with varying concentrations of B7RP-1 or B7RP1-Fc for at least eight hours at room temperature to allow them to reach equilibrium. The samples were then injected over the B7RP1-Fc surface, and the binding signal observed represented free antibody remaining in solution at equilibrium.

[2] = molecular target: T2, human B7RP-1 Ig2 (IgC-like) domain …; experiment: avidin fusion on biotin-coated beads, fluorescently labeled 16H, flow cytometry
Protocol: (§2) Expression vectors containing genes encoding these fusion proteins were individually transiently transfected into 293T cells and the conditioned media from these cell lines were used as the source of fusion protein. The avidin-tag was used to capture the B7R-1 fusion proteins from solution using a biotin-coated bead. Fusion proteins were incubated with either fluorescently-labeled 16H or 5D mAbs or a fluorescently-labeled ICOS-Fc fusion protein, and incubated with biotin-coated beads The beads were recovered and analyzed using flow cytometry on a Becton-Dickinson Bioscience FACScan (BD, Franklin Lakes, N.J.). […] Thus, the ICOS, 16H, and 5D binding regions on B7RP-1 were located in the Ig1 domain

[3] = molecular target: T3, human B7RP1-Fc fusion protein; experiment: Biacore Fc column of Table 4 (same value as Table 3)
Protocol: as §1

[4] = molecular target: T1, soluble recombinant human B7RP-1; experiment: Biacore solution equilibrium: mAb pre-incubated with soluble B7RP-1, free mAb read on immobilized B7RP1-Fc
Protocol: as §1

[5] = molecular target: T3, human B7RP1-Fc fusion protein; experiment: Biacore solution equilibrium: mAb pre-incubated with B7RP1-Fc, free mAb read on immobilized B7RP1-Fc
Protocol: as §1

[6] = molecular target: T4, full-length human B7RP-1 on cells; experiment: cell-based or functional assay
[7] = molecular target: T3, human B7RP1-Fc fusion protein; experiment: cell-based or functional assay
[8] = molecular target: T1, soluble recombinant human B7RP-1; experiment: KinExA, dual-curve fit at [Ab] 100 pM and 300 pM, hB7RP-1 titrated in solution
Protocol: (§3) Binding of 5D, 2H, and 2H germline antibodies was also tested using KinExA (kinetic exclusion assay) technology. In this assay, hB7RP-1 was coupled to agarose beads. The beads were used to create a bead column. Samples containing antibody at a fixed concentration, which were allowed to come to equilibrium with varying concentrations of hB7RP-1, were then passed over the bead column. Antibody not complexed with ligand bound to the coated beads.
(§4) A fluorescent tagged anti-human Fc secondary antibody was used to detect bound test antibody.

[9] = molecular target: T3, human B7RP1-Fc fusion protein; experiment: Biacore Fc column of Table 4
[10] = molecular target: T1, soluble recombinant human B7RP-1; experiment: KinExA, hB7RP-1 on agarose beads, antibody equilibrated with hB7RP-1 in solution
Protocol: as §3, §4

[11] = molecular target: T2, human B7RP-1 Ig2 (IgC-like) domain …; experiment: flow cytometry of biotin-coated beads capturing the avidin fusion protein, stained with fluorescently labelled antibody
[12] = molecular target: T2, human B7RP-1 Ig2 (IgC-like) domain …; experiment: avidin fusion on biotin-coated beads, fluorescently labeled 5D, flow cytometry
Protocol: (§5) Experiments were conducted to identify the region on B7RP-1 to which the 16H/16Hg and 5D monoclonal antibodies bind. To do this a novel Fluorescence-Activated Cell Sorter (FACS) binding assay was developed. The human extracellular domain (ECD) of B7RP1 (SEQ ID NO: 66) as well as truncated forms of B7RP-1 containing either the Ig1 (IgV-like; SEQ ID NO: 67) or the Ig2 (IgC-like; SEQ ID NO: 68) were expressed as N-terminal, in-frame fusions with chicken avidin.
as §2

[13] = molecular target: T2, human B7RP-1 Ig2 (IgC-like) domain …; experiment: avidin fusion on biotin-coated beads, fluorescently labeled ICOS-Fc, flow cytometry
Protocol: as §5, §2

Binder	Kd [1] [nM]	Kd [3] [nM]	Kd [4] [nM]	Kd [5] [nM]	CHO (co-stimulation assay with hB7RP1 transfected CHO cells, T cell proliferation) EC50 [6] [nM]	Plate (co-stimulation assay, T cell proliferation) EC50 [7] [nM]	Kd [8] [nM]	also measured
anti-B7RP1 human monoclonal antibody 16H (antibody, V domains shown, Fluorescently labelled in the flow cytometry assays; also called 16H mAb; B7RP-1 16H) VH: EVQLVESGGGLVQPGGSLRLSCAGSGFTFSSYWMSWVRQAPGKGLEWVAYIKQDGNEKYYVDSVKGRFTISRDNAKKSLYLQMNSLRAEDTAVYYCAREGILWFGDLPTFWGQGILVTVSS VL: DIQMTQSPSSLSASVGDRVTITCRASQGISNWLAWYQQKPEKAPKSLIYAASSLQSGVPSRFSGSGSGTDFTLTISSLQPEDFATYYCQQYDSYPRTFGQGTKVEIK	1.9	0.027	1.9	0.027	0.276	0.053		binding result [2]: no binding
anti-B7RP1 human monoclonal antibody 2H (antibody, V domains shown) VH: EVQLVESGGGLVQPGGSLRLSCVGSGFTFSSYWMSWVRQAPGKGLEWVAYIKQDGSEKYYVDSVKGRFTISRDNAKNSLYLQMNSLRAEDTAVYYCARDGILWFGDIPTYWGQGILVTVSS VL: DIQMTQSPSSLSASVGDRVTITCRASQGISNWLAWYQQKPEKAPKSLIYTASSLQSGVPSRFSGSGSGTDFTLTISSLQPEDFATYYCQQYNSYPRTFGQGTKVEIK					1.45	0.043	0.33	Kd [9]: 0.089 nM; fold difference in KD against 5D [10]: ~10 fold; binding result [11]: no binding
anti-B7RP1 human monoclonal antibody 2H germline (antibody, V domains shown) VH: EVQLVESGGGLVQPGGSLRLSCAASGFTFSSYWMSWVRQAPGKGLEWVAYIKQDGSEKYYVDSVKGRFTISRDNAKNSLYLQMNSLRAEDTAVYYCARDGILWFGDIPTYWGQGTLVTVSS VL: DIQMTQSPSSLSASVGDRVTITCRASQGISNWLAWYQQKPEKAPKSLIYTASSLQSGVPSRFSGSGSGTDFTLTISSLQPEDFATYYCQQYNSYPRTFGQGTKVEIK							0.4	
anti-B7RP1 human monoclonal antibody 16H germline (antibody, V domains shown) VH: EVQLVESGGGLVQPGGSLRLSCAASGFTFSSYWMSWVRQAPGKGLEWVAYIKQDGNEKYYVDSVKGRFTISRDNAKNSLYLQMNSLRAEDTAVYYCAREGILWFGDLPTFWGQGTLVTVSS VL: DIQMTQSPSSLSASVGDRVTITCRASQGISNWLAWYQQKPEKAPKSLIYAASSLQSGVPSRFSGSGSGTDFTLTISSLQPEDFATYYCQQYDSYPRTFGQGTKVEIK	2.7	0.017	2.7	0.017	0.523	0.032		
anti-B7RP1 human monoclonal antibody 41H (antibody, V domains shown) VH: EVQLVESGGGLVQPGGSLRLSCAASGFTFSSYWMSWVRQAPGKGLEWVAYIKQDGSEKYYVDSVKGRFTISRDNAKNSLYLQMNSLRAEDTAVYYCARDGILWFGDLPTYWGQGTLVTVSS VL: DIQMTQSPSSLSASVGDRVTITCRASQGISSWLAWYQQKPEKAPKSLIYAASSLQSGVPSRFSGSGSGTDFTLTISSLQPEDFATYYCQQYNTYPRTFGQGTKVEIK						0.052		
anti-B7RP1 human monoclonal antibody 5D (antibody, V domains shown, Fluorescently labelled in the flow cytometry assays; also called 5D mAb; B7RP-1 5D) VH: QVQLVESGGGVVQPGRSLRLSCAASGFTFSSYGMHWVRQAPGKGLEWVAVIWYDGSKKYYADSVEGRFTISRDNSKNTLYLQMNSLRAEDTAVFYCARDLNIMVWGIFDYWGQGTLVTVSS VL: EIVLTQSPATLSLSPGERATLSCRASQSVSSYLAWYQQKPGQAPRLLIYDASNRATGIPARFSGSGSGTDFTLTISSLEPEDFAVYYCQQRNNWPWTFGQGTKVEIK	0.037	0.0016	0.037	0.0016	1.46	0.055	0.018	binding result [12]: no binding
ICOS-Fc fusion protein (Fc fusion, UniProt Q9Y6W8 21-140, looked up, Fluorescently labelled in the flow cytometry assays; also called ICOS reagent; not shown: Fc part) EINGSANYEMFIFHNGGVQILCKYPDIVQQFKMQLLKGGQILCDLTKTKGSGNTVSIKSLKFCHSQLSNNSVSFFLYNLDHSHANYYFCNLSIFDPPPFKVTLTGGYLHIYESQLCCQLK					10.7			binding result [13]: no binding; Kd [9]: 1 nM
anti-B7RP1 human monoclonal antibody 15H (antibody, V domains shown) VH: EVQLVQSGGGLVHPGGSLRLSCAGSGFTFSSYAMHWVRQAPGKGLEWVSAIGTGGGTYYADSVKGRFTISRDNAKNSLYLQMNSLRAEDMAMYYCAKSGVPLLWFGEFYWGQGTLVTVSS VL: not shown						0.036		
anti-B7RP1 human monoclonal antibody 43H (antibody, V domains shown) VH: EVQLVQSGGGLVHPGGSLRLSCAGSGFTFSSYAMHWVRQAPGKGLEWVSAIGAGGGTYYADSVKGRFTISRDNAKNSLYLQMNSLRAEDMAVYYCARVVVVVGFFDYWGQGTLVTVSS VL: DIQMTQSPSSLSASVGDRVTITCRASQGISSWLAWYQQKPEKAPKSLIFAASSLQSGVPSRFSGSGSGTDFTLTISSLQPEDFATYYCQQYNSYPYTFGQGTKLEIK						0.046		
